Values belong to the substance of their own block, whether it stands above or below them.
Columns and labels:
[1] = biological target: CD20 (UniProt P11836); test: flow cytometry on CLL patient sample CLL187, FITC-rituximab at 10 µg per 10^6 cells, median fluorescence intensity, background corrected
[2] = biological target: CD20 (UniProt P11836); test: flow cytometry, FITC-labelled antibody on Daudi and SU-DHL-6 cells
[3] = biological target: CD20 (UniProt P11836); test: flow cytometry on CLL patient sample CLL177, FITC-rituximab at 10 µg per 10^6 cells, median fluorescence intensity, background corrected
[4] = biological target: human CD37 (human) (UniProt P11049); test: flow cytometry on Ramos cells, isotype control, MFI normalised to chHH1-DOTA (blank supernatant 28.3%)
Sequence of human CD37 (human) (P11049 whole entry, the tested form may be a part): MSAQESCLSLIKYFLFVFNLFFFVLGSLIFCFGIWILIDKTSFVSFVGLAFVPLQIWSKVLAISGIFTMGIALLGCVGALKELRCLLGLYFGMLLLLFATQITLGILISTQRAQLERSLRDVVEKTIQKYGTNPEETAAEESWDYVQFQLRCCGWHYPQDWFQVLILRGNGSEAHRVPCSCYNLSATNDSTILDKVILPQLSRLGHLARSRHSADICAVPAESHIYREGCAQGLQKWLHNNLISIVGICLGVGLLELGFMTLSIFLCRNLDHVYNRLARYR

[5] = biological target: biotinylated truncated soluble human FcγRIIIa-V158 (human) (UniProt P08637); test: ELISA: IgG coated at 10000-4.5 ng/ml, biotinylated truncated soluble human FcγRIIIa-V158 250 ng/ml pre-complexed with AP-streptavidin, absorbance 405 nm
[6] = biological target: biotinylated truncated soluble human FcγRIIb (human) (UniProt P31994); test: ELISA: IgG coated at 10000-4.5 ng/ml, biotinylated truncated soluble human FcγRIIb 250 ng/ml pre-complexed with AP-streptavidin, absorbance 405 nm
Sequence of biotinylated truncated soluble human FcγRIIb (human) (P31994 43-217): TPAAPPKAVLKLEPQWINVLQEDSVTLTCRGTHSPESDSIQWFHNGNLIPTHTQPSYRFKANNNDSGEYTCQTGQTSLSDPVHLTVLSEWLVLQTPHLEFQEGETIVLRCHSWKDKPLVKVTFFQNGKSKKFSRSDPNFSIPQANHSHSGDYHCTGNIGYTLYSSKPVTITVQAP

[7] = biological target: biotinylated truncated soluble human FcγRI (human) (UniProt P12314); test: ELISA: IgG coated at 10000-4.5 ng/ml, biotinylated truncated soluble human FcγRI 250 ng/ml pre-complexed with AP-streptavidin, absorbance 405 nm
Sequence of biotinylated truncated soluble human FcγRI (human) (P12314 16-292): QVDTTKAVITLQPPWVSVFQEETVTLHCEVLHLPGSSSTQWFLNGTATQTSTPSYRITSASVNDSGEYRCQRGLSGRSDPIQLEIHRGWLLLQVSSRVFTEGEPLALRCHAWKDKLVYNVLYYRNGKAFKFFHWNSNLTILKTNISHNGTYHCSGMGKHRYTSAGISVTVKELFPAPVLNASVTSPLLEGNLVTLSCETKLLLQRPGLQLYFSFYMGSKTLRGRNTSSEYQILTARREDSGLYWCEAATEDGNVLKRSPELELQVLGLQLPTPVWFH

[8] = biological target: biotinylated soluble human FcRn (human) (UniProt P55899); test: ELISA: IgG coated at 1000-0.45 ng/ml, biotinylated soluble human FcRn 250 ng/ml pre-complexed with AP-streptavidin, pH 7.4, absorbance 405 nm
[9] = biological target: biotinylated truncated soluble human FcγRIIa-H131 (human) (UniProt P12318); test: ELISA: IgG coated at 10000-4.5 ng/ml, biotinylated truncated soluble human FcγRIIa-H131 250 ng/ml pre-complexed with AP-streptavidin, absorbance 405 nm
Sequence of biotinylated truncated soluble human FcγRIIa-H131 (human) (P12318 34-217): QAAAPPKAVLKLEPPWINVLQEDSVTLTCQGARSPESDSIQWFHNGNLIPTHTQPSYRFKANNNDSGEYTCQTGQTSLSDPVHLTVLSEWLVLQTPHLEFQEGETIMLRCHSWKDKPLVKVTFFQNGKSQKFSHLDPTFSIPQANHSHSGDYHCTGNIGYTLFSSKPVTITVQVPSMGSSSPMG

[10] = biological target: biotinylated truncated soluble human FcγRIIa-R131 (human) (UniProt P12318); test: ELISA: IgG coated at 10000-4.5 ng/ml, biotinylated truncated soluble human FcγRIIa-R131 250 ng/ml pre-complexed with AP-streptavidin, absorbance 405 nm
Sequence of biotinylated truncated soluble human FcγRIIa-R131 (human) (P12318 34-217 H167R): as the sequence (P12318 34-217) above, with H134R counted along it

[11] = biological target: FcγRIIIa-V158 on Promega Jurkat effector cells (UniProt P08637); test: cell-based or functional assay

Sequence of CD20 (P11836 whole entry): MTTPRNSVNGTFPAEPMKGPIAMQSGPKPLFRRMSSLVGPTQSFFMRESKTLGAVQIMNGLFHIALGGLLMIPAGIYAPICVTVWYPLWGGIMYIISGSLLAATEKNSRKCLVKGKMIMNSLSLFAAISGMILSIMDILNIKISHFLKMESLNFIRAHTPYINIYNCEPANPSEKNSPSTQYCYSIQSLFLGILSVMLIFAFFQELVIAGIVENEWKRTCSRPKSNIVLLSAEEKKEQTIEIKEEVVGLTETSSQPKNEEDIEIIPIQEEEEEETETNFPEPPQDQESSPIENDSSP

Avg. MFI (a.u.) [1]: 68 a.u.
saturation titer (µg per 10^6 cells) [2]: 10
Avg. MFI (a.u.) [3]: 52 a.u.
Substance: Anti-CD20 (10F381 rituximab) FITC-conjugated rabbit/human chimeric Ab (antibody)

Normalized average binding (%) [4]: 29.5%
Substance: isotype control antibody

EC50 (read off the curve) [5]: 1 µg/mL
EC50 (read off the curve) [6]: 2 µg/mL
EC50 (read off the curve) [7]: 0.6 µg/mL
EC50 (read off the curve) [8]: 0.06 µg/mL
EC50 (read off the curve) [9]: 0.6 µg/mL
EC50 (read off the curve) [10]: 2 µg/mL
average potency of the ADCC response (Example 13) [11]: 1.1 nM
Substance: obinutuzumab (antibody)

Source: US20250333531A1
